In the supplement of paper PMC10065799, “High-throughput profiling of sequence recognition by tyrosine kinases and SH2 domains using bacterial peptide display” (eLife, 2023):

Each sequence was assayed against EPHB1 (UniProt P54762) (assay: phosphorylation enrichment, bacterial display (enrichment ratio); higher = better substrate or ligand; peptides without Tyr show the background).
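Note: 11-residue human phosphosite peptides and single-mutation variants displayed on the E. coli surface, counted by deep sequencing, each peptide's frequency after selection divided by its frequency in the unselected input library; frequency after pTyr selection over input frequency; kinase dosed for 20-30% of maximal phosphorylation in three min.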

Sequence of EPHB1 (P54762 whole entry, looked up): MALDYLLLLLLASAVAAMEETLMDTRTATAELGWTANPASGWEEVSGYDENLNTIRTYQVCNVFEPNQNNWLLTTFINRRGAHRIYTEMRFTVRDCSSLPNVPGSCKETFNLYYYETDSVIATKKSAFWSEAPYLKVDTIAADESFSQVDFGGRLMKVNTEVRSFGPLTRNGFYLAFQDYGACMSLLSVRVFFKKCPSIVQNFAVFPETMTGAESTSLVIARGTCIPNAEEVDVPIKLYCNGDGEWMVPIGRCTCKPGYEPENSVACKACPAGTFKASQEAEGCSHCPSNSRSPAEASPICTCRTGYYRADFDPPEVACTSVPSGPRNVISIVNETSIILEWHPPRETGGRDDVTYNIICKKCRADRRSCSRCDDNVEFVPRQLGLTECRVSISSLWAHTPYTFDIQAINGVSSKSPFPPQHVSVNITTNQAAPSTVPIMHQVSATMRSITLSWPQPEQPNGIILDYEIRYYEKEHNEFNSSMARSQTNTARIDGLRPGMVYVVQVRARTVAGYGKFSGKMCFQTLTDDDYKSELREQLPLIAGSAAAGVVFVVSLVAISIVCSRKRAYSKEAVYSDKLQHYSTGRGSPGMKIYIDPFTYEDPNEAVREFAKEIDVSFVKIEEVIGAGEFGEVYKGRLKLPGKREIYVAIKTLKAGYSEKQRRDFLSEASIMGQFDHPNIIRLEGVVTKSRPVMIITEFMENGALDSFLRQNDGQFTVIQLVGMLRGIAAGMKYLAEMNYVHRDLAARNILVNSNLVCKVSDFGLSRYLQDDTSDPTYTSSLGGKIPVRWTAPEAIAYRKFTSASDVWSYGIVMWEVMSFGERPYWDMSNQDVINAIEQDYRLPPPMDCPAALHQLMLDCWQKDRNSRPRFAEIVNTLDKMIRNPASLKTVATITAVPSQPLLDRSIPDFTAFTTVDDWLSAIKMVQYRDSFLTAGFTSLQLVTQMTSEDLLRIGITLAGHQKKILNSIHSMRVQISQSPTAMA

| Sequence | phosphorylation enrichment |
| --- | --- |
| RTLSEYARPHV [RERE_Y1259] | 0.832 |
| LSALDYKIFFF [WDPCP_Y210_YF] | 0.588 |
| QRAADYYSQQM [GBP6_Y333] | 0.933 |
| AVNNFYAAKKT [CCDC178_Y422_D420N] | 0.373 |
| HKGASYVFRLS [PTPRD_Y891] | 0.593 |
| LLARLYRGQAL [FGFR4_Y390_G388R] | 0.713 |
| LNERHYGGLTD [PGAM2_Y92_G97D] | 1.1 |
| YRDALYKFMVD [PHEX_Y250] | 1.24 |
| YDEYRYRSVIK [CFTR_Y517] | 0.584 |
| CLLHCYFSQIR [MCM3AP_Y873] | 0.497 |
| VECRVYAEDPF [PCCA_Y401_YF] | 0.766 |
| GTPVMYTYDEY [COL10A1_Y623] | 0.708 |
| TEDPEYDVQSK [PTCHD3_Y335] | 0.521 |
| GHGEEYPVAGA [NOTCH3_Y2221_A2223V] | 0.451 |
| QHNPEYVQQAT [LRRC7_Y1058_S1063T] | 0.425 |
| QNTGNYYDLYG [PTPN11_Y62_D61N] | 30.6 |
| TSKLNYLDPRI [TOP1_Y723] | 4.39 |

| Sequence | phosphorylation enrichment |
| --- | --- |
| KKLAEYGPQGR [CLCA1_Y147] | 0.376 |
| REESTYLPLTS [ICAM3_Y527] | 0.88 |
| NVVHEYSSELE [FGB_Y172_N170H] | 0.544 |
| GGMTEYELVVV [KRAS_Y4_K5E] | 1.39 |
| HPFNSYTFPRL [PAK5_Y316_S312P_YF] | 0.683 |
| SMAKFYASGIA [ACADSB_Y373_E376G_YF] | 0.344 |
| DGLALYTGSAL [COL6A3_Y524_S521L] | 0.968 |
| TYTVSYLPDMS [FLNC_Y1602] | 0.528 |
| DHAGMYGLGDR [MAPT_Y18_T17M] | 0.348 |
| AGGTRYRFVSQ [UCN3_Y95_R91G_YF] | 0.397 |
| RDSQLYAVDYE [MRPS34_Y34] | 0.904 |
| WKEREYEVVRD [CPS1_Y634_I632R] | 1.36 |
| AGLEEYSAMRD [HRAS_Y64_Q61L] | 0.568 |
| ALAAPYVLYPS [CEFIP_Y1332_G1337S] | 0.652 |
| FIGVTYKNEED [PDGFRA_Y993_YF] | 0.565 |
| EPDSLYGCGRG [ATM_Y2019_G2023R] | 0.534 |

The sequences below were run against EPHB2 (UniProt P29323) in the same assay as above.
Sequence of EPHB2 (P29323 whole entry, looked up): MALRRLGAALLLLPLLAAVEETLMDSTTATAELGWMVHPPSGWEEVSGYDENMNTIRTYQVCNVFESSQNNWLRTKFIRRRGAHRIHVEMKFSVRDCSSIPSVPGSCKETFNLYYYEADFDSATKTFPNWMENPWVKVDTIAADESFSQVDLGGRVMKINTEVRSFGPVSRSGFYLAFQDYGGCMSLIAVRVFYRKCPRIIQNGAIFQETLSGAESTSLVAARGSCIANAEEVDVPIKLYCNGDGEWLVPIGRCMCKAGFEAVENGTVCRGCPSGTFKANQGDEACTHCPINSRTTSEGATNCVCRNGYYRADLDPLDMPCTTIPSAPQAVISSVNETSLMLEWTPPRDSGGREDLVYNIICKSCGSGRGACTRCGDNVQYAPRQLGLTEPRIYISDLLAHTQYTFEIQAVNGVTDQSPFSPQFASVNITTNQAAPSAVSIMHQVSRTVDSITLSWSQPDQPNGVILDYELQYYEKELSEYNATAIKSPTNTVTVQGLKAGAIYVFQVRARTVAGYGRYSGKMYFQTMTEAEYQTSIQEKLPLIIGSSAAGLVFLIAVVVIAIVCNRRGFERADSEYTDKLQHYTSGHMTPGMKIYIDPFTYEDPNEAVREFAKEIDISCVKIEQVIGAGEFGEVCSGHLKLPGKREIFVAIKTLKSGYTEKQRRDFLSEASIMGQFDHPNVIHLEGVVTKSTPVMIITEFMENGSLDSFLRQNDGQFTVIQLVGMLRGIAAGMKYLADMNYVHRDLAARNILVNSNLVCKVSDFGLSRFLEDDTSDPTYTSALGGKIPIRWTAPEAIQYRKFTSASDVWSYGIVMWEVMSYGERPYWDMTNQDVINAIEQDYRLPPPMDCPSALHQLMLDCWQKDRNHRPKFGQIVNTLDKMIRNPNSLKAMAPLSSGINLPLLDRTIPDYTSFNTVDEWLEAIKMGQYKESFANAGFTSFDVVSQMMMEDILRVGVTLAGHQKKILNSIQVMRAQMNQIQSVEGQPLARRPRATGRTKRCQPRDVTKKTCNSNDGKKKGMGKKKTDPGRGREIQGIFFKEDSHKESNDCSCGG

| Sequence | phosphorylation enrichment |
| --- | --- |
| RTLSEYARPHV [RERE_Y1259] | 0.852 |
| LSALDYKIFFF [WDPCP_Y210_YF] | 0.71 |
| QRAADYYSQQM [GBP6_Y333] | 1.14 |
| AVNNFYAAKKT [CCDC178_Y422_D420N] | 0.352 |
| HKGASYVFRLS [PTPRD_Y891] | 0.791 |
| LLARLYRGQAL [FGFR4_Y390_G388R] | 0.477 |
| LNERHYGGLTD [PGAM2_Y92_G97D] | 0.83 |
| YRDALYKFMVD [PHEX_Y250] | 0.797 |
| YDEYRYRSVIK [CFTR_Y517] | 0.589 |
| CLLHCYFSQIR [MCM3AP_Y873] | 0.428 |
| VECRVYAEDPF [PCCA_Y401_YF] | 0.677 |
| GTPVMYTYDEY [COL10A1_Y623] | 0.978 |
| TEDPEYDVQSK [PTCHD3_Y335] | 0.661 |
| GHGEEYPVAGA [NOTCH3_Y2221_A2223V] | 0.424 |
| QHNPEYVQQAT [LRRC7_Y1058_S1063T] | 0.455 |
| QNTGNYYDLYG [PTPN11_Y62_D61N] | 28.7 |
| TSKLNYLDPRI [TOP1_Y723] | 1.7 |

| Sequence | phosphorylation enrichment |
| --- | --- |
| KKLAEYGPQGR [CLCA1_Y147] | 0.366 |
| REESTYLPLTS [ICAM3_Y527] | 0.894 |
| NVVHEYSSELE [FGB_Y172_N170H] | 0.656 |
| GGMTEYELVVV [KRAS_Y4_K5E] | 1.15 |
| HPFNSYTFPRL [PAK5_Y316_S312P_YF] | 0.64 |
| SMAKFYASGIA [ACADSB_Y373_E376G_YF] | 0.485 |
| DGLALYTGSAL [COL6A3_Y524_S521L] | 0.936 |
| TYTVSYLPDMS [FLNC_Y1602] | 0.705 |
| DHAGMYGLGDR [MAPT_Y18_T17M] | 0.541 |
| AGGTRYRFVSQ [UCN3_Y95_R91G_YF] | 0.272 |
| RDSQLYAVDYE [MRPS34_Y34] | 1.05 |
| WKEREYEVVRD [CPS1_Y634_I632R] | 2.29 |
| AGLEEYSAMRD [HRAS_Y64_Q61L] | 0.585 |
| ALAAPYVLYPS [CEFIP_Y1332_G1337S] | 0.473 |
| FIGVTYKNEED [PDGFRA_Y993_YF] | 0.484 |
| EPDSLYGCGRG [ATM_Y2019_G2023R] | 0.45 |

What follows are sequences tested on c-Abl (mouse) in the same assay as above.

| Sequence | phosphorylation enrichment |
| --- | --- |
| RTLSEYARPHV [RERE_Y1259] | 31.7 |
| LSALDYKIFFF [WDPCP_Y210_YF] | 0.725 |
| QRAADYYSQQM [GBP6_Y333] | 0.591 |
| AVNNFYAAKKT [CCDC178_Y422_D420N] | 0.542 |
| HKGASYVFRLS [PTPRD_Y891] | 0.935 |
| LLARLYRGQAL [FGFR4_Y390_G388R] | 0.937 |
| LNERHYGGLTD [PGAM2_Y92_G97D] | 0.605 |
| YRDALYKFMVD [PHEX_Y250] | 0.803 |
| YDEYRYRSVIK [CFTR_Y517] | 1.05 |
| CLLHCYFSQIR [MCM3AP_Y873] | 0.667 |
| VECRVYAEDPF [PCCA_Y401_YF] | 1.11 |
| GTPVMYTYDEY [COL10A1_Y623] | 0.68 |
| TEDPEYDVQSK [PTCHD3_Y335] | 0.679 |
| GHGEEYPVAGA [NOTCH3_Y2221_A2223V] | 0.592 |
| QHNPEYVQQAT [LRRC7_Y1058_S1063T] | 0.517 |
| QNTGNYYDLYG [PTPN11_Y62_D61N] | 1.28 |
| TSKLNYLDPRI [TOP1_Y723] | 0.407 |

| Sequence | phosphorylation enrichment |
| --- | --- |
| KKLAEYGPQGR [CLCA1_Y147] | 0.473 |
| REESTYLPLTS [ICAM3_Y527] | 0.674 |
| NVVHEYSSELE [FGB_Y172_N170H] | 0.987 |
| GGMTEYELVVV [KRAS_Y4_K5E] | 0.589 |
| HPFNSYTFPRL [PAK5_Y316_S312P_YF] | 1.05 |
| SMAKFYASGIA [ACADSB_Y373_E376G_YF] | 0.51 |
| DGLALYTGSAL [COL6A3_Y524_S521L] | 0.749 |
| TYTVSYLPDMS [FLNC_Y1602] | 0.55 |
| DHAGMYGLGDR [MAPT_Y18_T17M] | 0.411 |
| AGGTRYRFVSQ [UCN3_Y95_R91G_YF] | 0.576 |
| RDSQLYAVDYE [MRPS34_Y34] | 0.966 |
| WKEREYEVVRD [CPS1_Y634_I632R] | 0.594 |
| AGLEEYSAMRD [HRAS_Y64_Q61L] | 0.636 |
| ALAAPYVLYPS [CEFIP_Y1332_G1337S] | 0.583 |
| FIGVTYKNEED [PDGFRA_Y993_YF] | 0.649 |
| EPDSLYGCGRG [ATM_Y2019_G2023R] | 0.885 |

Each sequence was assayed against Jak2 (UniProt O60674) in the same assay as above.
Sequence of Jak2 (O60674 whole entry, looked up): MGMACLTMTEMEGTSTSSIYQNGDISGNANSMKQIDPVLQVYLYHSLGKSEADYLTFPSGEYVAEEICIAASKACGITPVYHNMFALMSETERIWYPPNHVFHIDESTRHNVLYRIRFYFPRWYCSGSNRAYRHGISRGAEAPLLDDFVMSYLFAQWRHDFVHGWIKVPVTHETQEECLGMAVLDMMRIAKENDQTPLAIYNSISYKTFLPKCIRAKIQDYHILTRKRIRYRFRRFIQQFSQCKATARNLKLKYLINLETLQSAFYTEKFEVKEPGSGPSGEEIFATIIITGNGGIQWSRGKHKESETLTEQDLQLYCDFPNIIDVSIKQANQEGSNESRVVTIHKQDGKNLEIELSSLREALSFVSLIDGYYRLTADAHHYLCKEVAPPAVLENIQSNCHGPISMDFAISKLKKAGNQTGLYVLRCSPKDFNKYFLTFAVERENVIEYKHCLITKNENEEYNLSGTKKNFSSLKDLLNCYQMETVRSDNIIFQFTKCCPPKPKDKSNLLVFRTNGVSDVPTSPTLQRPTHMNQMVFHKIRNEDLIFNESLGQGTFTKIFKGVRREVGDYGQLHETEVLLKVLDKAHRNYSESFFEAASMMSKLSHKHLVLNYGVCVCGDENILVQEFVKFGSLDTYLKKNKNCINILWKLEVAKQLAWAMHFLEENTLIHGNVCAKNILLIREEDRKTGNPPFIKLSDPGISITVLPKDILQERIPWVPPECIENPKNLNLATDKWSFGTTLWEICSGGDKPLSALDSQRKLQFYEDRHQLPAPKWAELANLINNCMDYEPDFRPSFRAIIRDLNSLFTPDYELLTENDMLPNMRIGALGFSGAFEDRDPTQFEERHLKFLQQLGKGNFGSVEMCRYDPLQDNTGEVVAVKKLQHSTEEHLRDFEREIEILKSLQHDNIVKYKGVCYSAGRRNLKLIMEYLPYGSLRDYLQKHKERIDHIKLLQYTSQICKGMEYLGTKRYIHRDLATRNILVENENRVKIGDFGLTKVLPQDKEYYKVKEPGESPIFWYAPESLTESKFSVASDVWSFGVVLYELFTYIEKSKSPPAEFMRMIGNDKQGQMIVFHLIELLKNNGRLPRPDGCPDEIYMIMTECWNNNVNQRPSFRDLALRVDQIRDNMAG

| Sequence | phosphorylation enrichment |
| --- | --- |
| RTLSEYARPHV [RERE_Y1259] | 0.871 |
| LSALDYKIFFF [WDPCP_Y210_YF] | 0.991 |
| QRAADYYSQQM [GBP6_Y333] | 0.728 |
| AVNNFYAAKKT [CCDC178_Y422_D420N] | 0.566 |
| HKGASYVFRLS [PTPRD_Y891] | 1.26 |
| LLARLYRGQAL [FGFR4_Y390_G388R] | 0.823 |
| LNERHYGGLTD [PGAM2_Y92_G97D] | 0.457 |
| YRDALYKFMVD [PHEX_Y250] | 1.11 |
| YDEYRYRSVIK [CFTR_Y517] | 1.16 |
| CLLHCYFSQIR [MCM3AP_Y873] | 1.21 |
| VECRVYAEDPF [PCCA_Y401_YF] | 1.6 |
| GTPVMYTYDEY [COL10A1_Y623] | 1.04 |
| TEDPEYDVQSK [PTCHD3_Y335] | 0.936 |
| GHGEEYPVAGA [NOTCH3_Y2221_A2223V] | 0.682 |
| QHNPEYVQQAT [LRRC7_Y1058_S1063T] | 0.985 |
| QNTGNYYDLYG [PTPN11_Y62_D61N] | 2.99 |
| TSKLNYLDPRI [TOP1_Y723] | 0.506 |

| Sequence | phosphorylation enrichment |
| --- | --- |
| KKLAEYGPQGR [CLCA1_Y147] | 0.441 |
| REESTYLPLTS [ICAM3_Y527] | 1.41 |
| NVVHEYSSELE [FGB_Y172_N170H] | 1.02 |
| GGMTEYELVVV [KRAS_Y4_K5E] | 1 |
| HPFNSYTFPRL [PAK5_Y316_S312P_YF] | 0.995 |
| SMAKFYASGIA [ACADSB_Y373_E376G_YF] | 0.677 |
| DGLALYTGSAL [COL6A3_Y524_S521L] | 0.901 |
| TYTVSYLPDMS [FLNC_Y1602] | 0.903 |
| DHAGMYGLGDR [MAPT_Y18_T17M] | 0.45 |
| AGGTRYRFVSQ [UCN3_Y95_R91G_YF] | 0.465 |
| RDSQLYAVDYE [MRPS34_Y34] | 2.07 |
| WKEREYEVVRD [CPS1_Y634_I632R] | 0.949 |
| AGLEEYSAMRD [HRAS_Y64_Q61L] | 0.837 |
| ALAAPYVLYPS [CEFIP_Y1332_G1337S] | 0.856 |
| FIGVTYKNEED [PDGFRA_Y993_YF] | 0.92 |
| EPDSLYGCGRG [ATM_Y2019_G2023R] | 0.858 |
